According to PMC3341524:

Target: murine p35-HA alanine/serine-scan mutant A13 (mouse) (UniProt P43431)
Assay: co-IP

decrease in IL-35 dimer formation against wild type: 30%
B1: murine Ebi3, triple-FLAG tagged (natural protein)
chain: YTETALVALSQPRVQCHASRYPVAVDCSWTPLQAPNSTRSTSFIATYRLGVATQQQSQPCLQRSPQASRCTIPDVHLFSTVPYMLNVTAVHPGGASSSLLAFVAERIIKPDPPEGVRLRTAGQRLQVLWHPPASWPFPDIFSLKYRLRYRRRGASHFRQVGPIEATTFTLRNSKPHAKYCIQVSAQDLTDYGKPSDWSLPGQVESAPHKP
